Earlier results on 1 substance are cited in PMC3308923.

The term Kd denotes a measure of binding affinity in units of concentration.

The data set has as its target HIV-1 capsid CA (Human immunodeficiency virus 1) (UniProt O93182). The conditions noted are these: cited from earlier work.

Sequence of HIV-1 capsid CA (Human immunodeficiency virus 1) (O93182 133-363): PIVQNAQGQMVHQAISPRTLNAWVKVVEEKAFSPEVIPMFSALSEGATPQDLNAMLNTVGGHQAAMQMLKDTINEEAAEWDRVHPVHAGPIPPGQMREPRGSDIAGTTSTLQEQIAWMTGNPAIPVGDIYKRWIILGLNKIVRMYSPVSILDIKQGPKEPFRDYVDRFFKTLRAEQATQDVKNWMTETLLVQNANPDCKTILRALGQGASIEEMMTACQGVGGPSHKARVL

Take CAI peptide: the equilibrium dissociation constant (Kd) was 15 µM.
